Reference: US20170210799A1 (Janssen / Centocor, published 2017)

Tests used:
[1] = biological target: T1, human ROR1 (Receptor Tyrosine Kinase-Like Orphan Receptor 1) on cells (human, UniProt Q01973 30-937); experiment: MSD-CAT, HEK293 cells expressing human ROR1; apparent KD (bivalent, avidity)
T1 construct: whole, on cells; also called hu ROR1

human FcγRIIIa (CD16a) = biological target: T2, human FcγRIIIa (CD16a) (human, UniProt P08637 17-208); experiment: competition AlphaScreen
T2 construct: bought, His-tagged, on Ni2+ Acceptor beads

human FcγRI (CD64) = biological target: T3, human FcγRI (CD64) (human, UniProt P12314 16-288); experiment: competition AlphaScreen
T3 construct: bought, His-tagged, on Ni2+ Acceptor beads; also called FcγR1

human FcγRIIb = biological target: T4, human FcγRIIb (human, UniProt P31994 46-217); experiment: competition AlphaScreen
T4 construct: bought, His-tagged, on Ni2+ Acceptor beads; also called FcγRIIb/c (CD32b/c)
T4 sequence (looked up): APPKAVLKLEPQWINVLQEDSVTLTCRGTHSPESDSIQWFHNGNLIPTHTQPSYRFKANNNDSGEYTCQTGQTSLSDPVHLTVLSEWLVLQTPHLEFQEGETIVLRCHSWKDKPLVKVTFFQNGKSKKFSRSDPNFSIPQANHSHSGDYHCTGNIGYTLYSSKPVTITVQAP

[2] = biological target: T5, human ROR1 (Receptor Tyrosine Kinase-Like Orphan Receptor 1) on cells (human, UniProt Q01973 30-937); experiment: MSD-CAT, cells expressing ROR1
T5 construct: whole, on cells; endogenous on SKMES-1, MDA-MB231, H358, HCC827 and MCL lines, or on HEK293 cells transfected with human ROR1 (pDR25226); the cell line is named under assay; also called cell-surface ROR1; hu ROR1

[3] = biological target: T5, human ROR1 (Receptor Tyrosine …); experiment: MSD-CAT; 1000 pM antibody equilibrated with serially diluted HEK293 cells overexpressing human ROR1
human FcγRIIa (CD32a) = biological target: T6, human FcγRIIa (CD32a) (human, UniProt P12318 36-218); experiment: AlphaScreen competition: unlabeled competitor antibody against biotinylated B21M WT IgG1 for His-tagged human FcγRIIa; 1x PBS, 0.05% BSA, 0.01% Tween-20, pH 7.2
T6 construct: bought, His-tagged, on Ni2+ Acceptor beads
T6 sequence (looked up): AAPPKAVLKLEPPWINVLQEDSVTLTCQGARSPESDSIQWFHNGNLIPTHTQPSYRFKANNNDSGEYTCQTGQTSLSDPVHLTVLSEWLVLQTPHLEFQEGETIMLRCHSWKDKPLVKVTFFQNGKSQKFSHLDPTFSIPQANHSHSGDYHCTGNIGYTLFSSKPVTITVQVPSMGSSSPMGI

[4] = biological target: T7, human FcRn (FCGRT/B2M Heterodimer) (human, UniProt P55899 24-297; P61769 21-119); experiment: AlphaScreen competition: unlabeled competitor antibody against biotinylated B21M WT IgG1 for His-tagged human FcRn; 1x PBS, 0.05% BSA, 0.01% Tween-20, pH 6.0
T7 construct: bought heterodimer, His-tagged

[5] = biological target: T5, human ROR1 (Receptor Tyrosine …); experiment: MSD-CAT; 200, 40 or 8 pM antibody equilibrated with serially diluted HEK293 cells overexpressing human ROR1
[6] = biological target: T5, human ROR1 (Receptor Tyrosine …); experiment: cell binding, ROR1 expressing H358 cells
[7] = biological target: T8, ROR1 extracellular domain c-Mer proto-oncogene tyrosine kinase transmembrane domain (ROR1 ECD MERTK tm) (Homo sapiens (Human), UniProt Q01973 30-405); experiment: cell binding, ROR1 transiently transfected HEK293F cells
T8 construct: also called RR1W1; ROR1-Transfected CHO

[8] = biological target: T1, human ROR1 (Receptor Tyrosine …); experiment: cell binding, H358 cells
[9] = biological target: ROR1 ECD MERTK tm (RR1W1) on transfected HEK293F cells (Homo sapiens (Human), UniProt Q01973 30-405); experiment: cell binding, ROR1 transfected 293F cells

B1: RR1B67 (antibody, human IgG4 S228P, kappa, F234A L235A, V domains shown)
VH: QVQLVQSGAEVKKPGSSVKVSCKASGGTFSTYAIHWVRQAPGQGLEWMGRIIPIEGRAYYAQKFQGRVTITADESTSTAYMELSSLRSEDTAVYYCARGRYSYRYWFDYWGQGTLVTVSS
VL: EIVLTQSPATLSLSPGERATLSCRASQSVSSYLAWYQQKPGQAPRLLIYDASNRATGIPARFSGSGSGTDFTLTISSLEPEDFAVYYCQQRSNWPLTFGQGTKVEIKR
notes: huIgG4 PAA, kappa; also called RRIB67
Q: With B1 as the binder, how does the Kd [1] read?
A: 0.055 nM

B2: RCDB5 (bispecific antibody, human IgG4 S228P, kappa, lambda, F234A L235A)
heavy 1: not shown
light 1: not shown
heavy 2: EVQLVESGGGLVQPGGSLRLSCAASGFTFNTYAMNWVRQAPGKGLEWVARIRSKYNNYATYYAASVKGRFTISRDDSKNSLYLQMNSLKTEDTAVYYCARHGNFGNSYVSWFAYWGQGTLVTVSSASTKGPSVFPLAPCSRSTSESTAALGCLVKDYFPEPVTVSWNSGALTSGVHTFPAVLQSSGLYSLSSVVTVPSSSLGTKTYTCNVDHKPSNTKVDKRVESKYGPPCPPCPAPEAAGGPSVFLFPPKPKDTLMISRTPEVTCVVVDVSQEDPEVQFNWYVDGVEVHNAKTKPREEQFNSTYRVVSVLTVLHQDWLNGKEYKCKVSNKGLPSSIEKTISKAKGQPREPQVYTLPPSQEEMTKNQVSLTCLVKGFYPSDIAVEWESNGQPENNYKTTPPVLDSDGSFLLYSKLTVDKSRWQEGNVFSCSVMHEALHNHYTQKSLSLSLGK
light 2: QTVVTQEPSLTVSPGGTVTLTCRSSTGAVTTSNYANWVQQKPGQAPRGLIGGTNKRAPGTPARFSGSLLGGKAALTLSGVQPEDEAEYYCALWYSNLWVFGGGTKLTVLGQPKAAPSVTLFPPSSEELQANKATLVCLISDFYPGAVTVAWKADSSPVKAGVETTTPSKQSNNKYAASSYLSLTPEQWKSHRSYSCQVTHEGSTVEKTVAPTECS
notes: also called ROR1×CD3 bispecific antibody
Q: Does B2 bind (human FcγRIIIa (CD16a))?
A: binds

Q: Does B2 bind (human FcγRI (CD64))?
A: binds

Q: Does B2 bind (human FcγRIIb)?
A: binds

Q: What about the Kd [2] of the same binder?
A: ~0.3 nM

Q: And the “IC50 (read off the curve)” value [3]?
A: ~1 nM

Q: Does B2 bind (human FcγRIIa (CD32a))?
A: binds

Q: Does B2 bind [4]?
A: binds

Q: And the “IC50 (read off the curve)” value [5]?
A: ~0.4 nM

B3: CD3B219 (antibody, human IgG4 S228P, lambda, F234A L235A, V domains shown)
VH: EVQLVESGGGLVQPGGSLRLSCAASGFTFNTYAMNWVRQAPGKGLEWVARIRSKYNNYATYYAASVKGRFTISRDDSKNSLYLQMNSLKTEDTAVYYCARHGNFGNSYVSWFAYWGQGTLVTVSS
VL: QTVVTQEPSLTVSPGGTVTLTCRSSTGAVTTSNYANWVQQKPGQAPRGLIGGTNKRAPGTPARFSGSLLGGKAALTLSGVQPEDEAEYYCALWYSNLWVFGGGTKLTVLG
notes: IgG4 PAA anti-CD3 parental antibody; also called anti-CD3 antibody CD3B219; anti-CD3 antibodies
Q: Does B3 bind [6]?
A: no binding

Q: Does B3 bind [7]?
A: no binding

B4: CD3B219 (antibody, human IgG4 S228P, lambda, F234A L235A, V domains shown)
VH: B3 VH
VL: B3 VL
notes: parental anti-CD3 mAb; also called anti-CD3 antibody; Anti-CD3
Q: Does B4 bind [8]?
A: no binding

Q: Does B4 bind [9]?
A: no binding
